For the data set the following is noted: pH 6, cacodylate 0.03 M, reversible: yes; for denaturant m value / denaturant midpoint (higher = more stable) / unfolding free energy: 25 °C, GdnHCl, KCl 0.1 M.
Where [1] appears, read: Equus caballus, Thermal, CD, KCl.

Where “and” joins values, the source holds several entries; their conditions need not be identical. Identical values can stand only once.

Cytochrome c wild type, P62894, sequence (P62894 whole entry): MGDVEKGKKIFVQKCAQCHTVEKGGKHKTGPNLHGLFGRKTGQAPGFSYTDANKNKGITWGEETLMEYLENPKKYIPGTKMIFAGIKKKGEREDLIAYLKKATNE
Cytochrome c wild type, P00004, sequence (P00004 whole entry): as the sequence (P62894 whole entry) above, with S48T, G61K, G90T counted along it

As a reminder, the Tm is the temperature at which the thermal transition is half complete. With Cytochrome c wild type, P00004, for the setting “Equus caballus, Absorbance”, the denaturant m value was 3.53 kcal/mol/M and 2.49 kcal/mol/M and 2.87 kcal/mol/M; the “denaturant midpoint (higher = more stable)” value (“denaturant midpoint” for short) was 2.49 M and 2.35 M and 2.37 M; the unfolding free energy is 8.83 kcal/mol and 6.01 kcal/mol and 6.81 kcal/mol. Further, under “Equus caballus, CD”, the denaturant m value is 2.69 kcal/mol/M and 3.48 kcal/mol/M and 3.39 kcal/mol/M; the “denaturant midpoint” value was 2.5 M and 2.4 M and 2.45 M; the unfolding free energy was 6.71 kcal/mol and 8.36 kcal/mol and 8.31 kcal/mol. Further, under setting [1], the Tm was determined as 26.8 °C and the “unfolding enthalpy (van 't Hoff)” value came out at 19.1 kcal/mol.
Consider Cytochrome c wild type, P62894, for which, for the setting “Bos taurus, Absorbance”, the denaturant m value was found to be 3.95 kcal/mol/M, the “denaturant midpoint” value came to 2.65 M and the unfolding free energy was 10.5 kcal/mol. In addition, under “Bos taurus, CD”, the denaturant m value is 4.02 kcal/mol/M and 4.03 kcal/mol/M and 3.91 kcal/mol/M; the “denaturant midpoint” value was 2.63 M and 2.61 M; the unfolding free energy is 10.6 kcal/mol and 10.2 kcal/mol.

Values taken from FireProtDB (doi:10.1016/s1570-9639(02)00548-4).
